The values below come from the supplement of paper PMC9170038.

This data set relates to MS2 coat protein. The data set can be described thus: apparent KD of MS2 coat protein; designed switch direction (-1 OFF switch, 1 ON switch): -1; higher = weaker reporter binding. The method, boiled down:
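The reported apparent KD is a per-design median over clusters, from curve fits of normalised cluster fluorescence. Protein titrations used SNAP-549-labelled MS2 coat protein, doubled from 0.7 or 1.5 nM to 3 µM, in Tris-HCl pH 7.5 buffer with KCl, MgCl2, BSA, DTT, tRNA and Tween-20, with no input, 200 uM small-molecule ligand, or an oligonucleotide input. The RNA switches were transcribed on Illumina chips by stalled E. coli RNA polymerase.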

[1] abbreviates: input ligand: microRNA oligo, concentration not stated.
[2] abbreviates: Eterna round: R95, input ligand: microRNA oligo, concentration not stated.
The mark [3] stands for this setting: Eterna round: R95, input ligand: FMN 200 uM.
Where [4] appears, read: Eterna round: R95, input ligand: none.

With “GGACGGAUAGGAUAUACAUGAGGAUCACCCAUGUGAACCCAGCAGAGGCUUCUUUGCAGUAGAAGGGUCCUUUA [Eternabot (Original) Solution 43] (Eterna round: R97, puzzle: Exclusion 3)”, the “apparent KD of MS2 coat protein” value runs as follows: (input ligand: FMN 200 uM) 0.0535 µM; (input ligand: none) 0.0475 µM.
As for “GGAGAGAGAGGAUAUGGAGGAAAGAACAUGAGGAUCACCCAUGUAGAGCCUCAAGAUCGACCAGAAGGCUCAGUCC [AK-MS2ROC-r4-exclusion5-10] (Eterna round: R97, puzzle: Exclusion 5)”, the “apparent KD of MS2 coat protein” value is, setting by setting: (input ligand: FMN 200 uM) 0.15 µM; (input ligand: none) 0.0275 µM.
For the sequence “GGAGGACGAGCAGGAUAUUUUUACAUGAGGAUCACCCAUGUGUACUCAGGGUAAUCCUCCGCCGAAAAGAAGGGUUCGGAAGAA [JL ViennaUCT Socedi mod 4] (Eterna round: R96, puzzle: Exclusion NG 2)”, the “apparent KD of MS2 coat protein” value by setting is: (input ligand: FMN 200 uM) 0.124 µM; under setting [1], 0.0416 µM; (input ligand: none) 0.0632 µM.
For the sequence “GGAUAAAGUCGAGGAUAUACGCACCACUAACGAGUAGAAGGCGAACAUGAGGAUCACCCAUGUGAGUUCUCAAUAAGAAACACG [Prohibition 69 - Jieux - Exclusion NG 1] (Eterna round: R96, puzzle: Exclusion NG 1)”, the “apparent KD of MS2 coat protein” value is, setting by setting: (input ligand: FMN 200 uM) 0.0541 µM; under setting [1], 0.0261 µM; (input ligand: none) 0.0371 µM.
With “GGAUCACAUGUCAGGAUAUGCUGGUCCUUGGAUCAGCAGAAGGGACAUGAGGAUCACCCAUGUCAUGAAGAUCC [Eli bmx4 4.80] (Eterna round: R97, puzzle: Brourd's mod of Exclusion 4)”, the “apparent KD of MS2 coat protein” value was found to be 1.02 µM (input ligand: FMN 200 uM) and 0.139 µM (input ligand: none).
On to “GGAUCGAAAGUGAGGAUAUACCACUGGAUACAGUGGUAGAAGGCACAUGAGGAUCACCCAUGUCCUUACGAUCC [Fiskers BMX 4 - 48] (puzzle: Brourd's mod of Exclusion 4)”, for which, under setting [2], the “apparent KD of MS2 coat protein” value worked out at 0.0205 µM.
Consider “GGAUCGAAUGUGAGGAUAUGCUGGUCCUUGGAUCAGCAGAAGGCACAUGAGGAUCACCCAUGUGACCAAGAUCC [Eli bmx4 4.73] (Eterna round: R97, puzzle: Brourd's mod of Exclusion 4)”, for which the “apparent KD of MS2 coat protein” value came to 0.45 µM (input ligand: FMN 200 uM) and 0.0441 µM (input ligand: none).
In the case of “GGAUCGAGUGUGAGGAUAUGCUGGUCCUUGGAUCAGCAGAAGGCACAUGAGGAUCACCCAUGUGAAGACGGUCC [Copy of R95 JL bmx4 3.16] (Eterna round: R97, puzzle: Brourd's mod of Exclusion 4)”, the “apparent KD of MS2 coat protein” value runs as follows: (input ligand: FMN 200 uM) 0.288 µM; (input ligand: none) 0.0386 µM.
As for “GGAUCGAGUGUGAGGAUAUGCUGGUCCUUGGAUCAGCAGAAGGCACAUGAGGAUCACCCAUGUGAAGACGGUCC [JL bmx4 3.16] (Eterna round: R96, puzzle: Brourd's mod of Exclusion 4)”, the “apparent KD of MS2 coat protein” value under setting [1] turned out to be 0.0259 µM.
Consider “GGAUCGAGUGUGAGGAUAUGCUGGUCCUUGGAUCAGCAGAAGGCACAUGAGGAUCACCCAUGUGAAGACGGUCC [JL bmx4 3.16] (puzzle: Brourd's mod of Exclusion 4)”, for which the “apparent KD of MS2 coat protein” value reads like this: under setting [3], 0.27 µM; under setting [2], 0.0247 µM; under setting [4], 0.0258 µM.
As for “GGAUCGAGUGUGAGGAUAUGCUGGUCGUAAGAUCAGCAGAAGGCACAUGAGGAUCACCCAUGUGAAAACGGUCC [Mat - Exclusion 4 - JL Mod - D72] (puzzle: Brourd's mod of Exclusion 4)”, the “apparent KD of MS2 coat protein” value under setting [2] came out at 0.0256 µM.
Regarding “GGAUCUACUGAGGAUAUUAUAUCACCCGACUGAUAAGAAGGCAGUACAUGAGGAUCACCCAUGUGGGUAGCCAC [Polaris7] (Eterna round: R97, puzzle: Exclusion 6)”, the “apparent KD of MS2 coat protein” value was determined as 0.0796 µM (input ligand: FMN 200 uM) and 0.0994 µM (input ligand: none).
Consider “GGCAAUAUGUAGGAUAUCGUAAUGGAAACAUUACGAGAAGGGCAAACAUGAGGAUCACCCAUGUUCCUUAAGCC [Mat - Exclusion 6 - Eli Mod - D69] (puzzle: Exclusion 6)”, for which the “apparent KD of MS2 coat protein” value was found to be 0.0215 µM under setting [3], 0.015 µM under setting [2] and 0.0184 µM under setting [4].
For the sequence “GGCACACAUGAGGAUCACCCAUGUGAGGAUAUUAGGCGAUCGUCGAUAGACGAUAGCCUGAGAAGGCACAUGCC [Mat - Exclusion 1 - Eli Mod - D12] (Eterna round: R97, puzzle: Exclusion 1)”, the “apparent KD of MS2 coat protein” value was determined as 0.0769 µM (input ligand: FMN 200 uM) and 0.0206 µM (input ligand: none).
For “GGCAGGCUUGAGGAUAUGCAUAGGCUAGGCCUAGCAGAAGGCAAGACAUGAGGAUCACCCAUGUGUUCCUUGUG [jl-ex6-4.35 ViennaUCT mod] (Eterna round: R97, puzzle: Exclusion 6)”, in that order: 0.545 µM and 0.322 µM.
With “GGCAGUACAGAGGAUAUCUGGACCUACAGGAAUAGAGAAGGUUGUACAUGAGGAUCACCCAUGUCGACACUCAG [Eternabot (Original) Solution 11] (Eterna round: R97, puzzle: Exclusion 6)”, the “apparent KD of MS2 coat protein” value (input ligand: FMN 200 uM) stood at 0.0132 µM and the “apparent KD of MS2 coat protein” value (input ligand: none) was 0.0137 µM.
For “GGCAUGUGAGGAUAUUAACGGCCUAGACCUGGAACGCCACUUAAGAAGGUACAUGAGGAUCACCCAUGUUGGUG [Eternabot (L2) Solution 19] (Eterna round: R97, puzzle: Exclusion 4)”, in that order: 0.711 µM and 0.367 µM.
Regarding “GGCCCAUGAGGAUAUCAGUCUGGAUCAGACUAGAUCCUGACUGAGAAGGCACAUGAGGAUCACCCAUGUAGGCC [Eli 4x 4.30] (Eterna round: R97, puzzle: Exclusion 4)”, the “apparent KD of MS2 coat protein” value (input ligand: FMN 200 uM) was determined as 0.0173 µM and the “apparent KD of MS2 coat protein” value (input ligand: none) was 0.0236 µM.
For the sequence “GGCCCGCGCGUGAGGAUAUGCUGAUACUAGGAUUAGCAGAAGGCACAUGAGGAUCACCCAUGUCCAACUUGUCU [LRO-BmodExc4-11- Bluer = mod of Colors by Tatyana Zabanova] (Eterna round: R97, puzzle: Brourd's mod of Exclusion 4)”, the “apparent KD of MS2 coat protein” value (input ligand: FMN 200 uM) came to 0.0344 µM and the “apparent KD of MS2 coat protein” value (input ligand: none) came to 0.0245 µM.
Taken in the same sequence, the figures for “GGCCGGGCAGGAUAUGCGUGGGUCCUCAUGAGGACCCACGUACAUGAGGAUCACCCAUGUAGAAGGGCCCGGCC (Eterna round: R97, puzzle: Exclusion 2)” were 0.0176 µM and 0.0142 µM.
On to “GGCCGUAAUAAGGAUAUCACUAGCUUCGGCUAGUGAGAAGGUAUUACAUGAGGAUCACCCAUGUGAUUAGGCCA [E6/5-B1] (Eterna round: R97, puzzle: Exclusion 6)”, for which the “apparent KD of MS2 coat protein” value (input ligand: FMN 200 uM) was determined as 0.0981 µM and the “apparent KD of MS2 coat protein” value (input ligand: none) stood at 0.0252 µM.
Take “GGCCUGUGAGGAUAUUAGUAGUAGAUGAAAUAAACUAUUACUGAGAAGGCACAUGAGGAUCACCCAUGUUGGCC [Mat - Exclusion 4 - Eli Mod - D36] (Eterna round: R97, puzzle: Exclusion 4)”: the “apparent KD of MS2 coat protein” value by setting is: (input ligand: FMN 200 uM) 0.0166 µM; (input ligand: none) 0.0161 µM.
Turning to “GGCCUUCCACAAGCUUUUUACAUGAGGAUCACCCAUGUGGUUUUUAGUCUUAUCCCGGGCCCGAUGUCGGGCCCGGG [-33.4, -54.7, A 16%] (Eterna round: R97, puzzle: Sensor, turn-off variant 1)”, the “apparent KD of MS2 coat protein” value (input ligand: FMN 200 uM) turned out to be 0.0274 µM and the “apparent KD of MS2 coat protein” value (input ligand: none) is 0.0284 µM.
With “GGCGAGGGAGGAUAUACGUGAUUGAUGCCGGGAACCCAGAGACAUGAGGAUCACCCAUGUAGAAGGCCCGGCUA [EX2 B.4] (Eterna round: R97, puzzle: Exclusion 2)”, the “apparent KD of MS2 coat protein” value reads like this: (input ligand: FMN 200 uM) 0.0109 µM; (input ligand: none) 0.0145 µM.
Turning to “GGGAUGUCAGGAUAUCCAAAAGUCUGCCAAUACAGCAGACAGGAGAAGGGACAUGAGGAUCACCCAUGUAAAGA [Atonis] (puzzle: Exclusion 4)”, under setting [2], the “apparent KD of MS2 coat protein” value was determined as 0.0335 µM.
For the sequence “GGGCCCGGAGGAUAUACAUGAGGAUCACCCAUGUAGGGCCCGGGUAUUCCCGGGUUUUGUAGAAGGCCGGGUUU [-33.8, -30.7 kcal, A 19%, 5a,5a] (Eterna round: R97, puzzle: Exclusion 3)”, the “apparent KD of MS2 coat protein” value (input ligand: FMN 200 uM) was 0.0251 µM and the “apparent KD of MS2 coat protein” value (input ligand: none) came to 0.0148 µM.
For the sequence “GGGCCGCAAGUAAGGAUAUCCCUUAAAUUGUGAGCGGAGAAGGUACUUGAGGAUCACCCAAGUAUAGAAGAAAA [Arinbear] (Eterna round: R97, puzzle: Brourd's mod of Exclusion 4)”, the “apparent KD of MS2 coat protein” value by setting is: (input ligand: FMN 200 uM) 0.0542 µM; (input ligand: none) 0.0152 µM.
For the sequence “GGGCCUUUGGUCAGGAUAUCUUAUUCCAGACUAUAGGAGAAGGGACUUGAGGAUCACCCAAGUAAAAUGAAAAC [Dizadi] (Eterna round: R97, puzzle: Brourd's mod of Exclusion 4)”, the “apparent KD of MS2 coat protein” value is, setting by setting: (input ligand: FMN 200 uM) 0.0233 µM; (input ligand: none) 0.024 µM.
Taken in the same sequence, the figures for “GGGCUGGGAGGAUAUUCGUUUGGAGACAUGAGGAUCACCCAUGUGAUGCGAGGGAAGUCCGGAGAAGGCUCGGUUC [-24.8, -21.2 kcal, 22% A] (Eterna round: R97, puzzle: Exclusion 5)” were 0.024 µM and 0.0159 µM.
Turning to “GGGUGCAAGCUAAGAUCCUACAUGAGGAUCACCCAUGUGGUCCGGUGACGUGAGUCACCGGACUUAGCUCGUCUUGU [salish99_S_TOV1_R5_004] (Eterna round: R97, puzzle: Sensor, turn-off variant 1)”, the “apparent KD of MS2 coat protein” value stood at 0.0912 µM (input ligand: FMN 200 uM) and 0.0956 µM (input ligand: none).
Taken in the same sequence, the figures for “GGUAAGCUAGGAUAUGCUUUGGGAAAGCAUUCCUUCGAUAAACUUGAGGAUCACCCAAGUAGAAGGAGCUUACU [salish99_ex2_r4_014] (Eterna round: R97, puzzle: Exclusion 2)” were 0.0192 µM and 0.0144 µM.
